From patent US10064928B2, “Peptides and combination of peptides for use in immunotherapy against CLL and other cancers” (IMMATICS BIOTECHNOLOGIES GMBH, priority 2015, dated 2018)

The substances below were run against HLA-A*02:01 (Homo sapiens, UniProt P04439, D140Y/D185E/D98H/E176V/E277Q/G131W/G231S/I119V/I121R/I166T/I218V/L300P/L318F/N151K/N90K/P208A/P217A/Q86G/Q94H/R138H/R169H/T345S) (assay: MHC binding assay (UV-ligand exchange, beta2m ELISA)). Settings: binding of HLA-class I restricted peptides to HLA-A*02:01, β2m ELISA.
Excerpt: Candidate peptides for T cell based therapies according to the present invention were further tested for their MHC binding capacity (affinity). The individual peptide-MHC complexes were produced by UV-ligand exchange, where a UV-sensitive peptide is cleaved upon UV-irradiation, and exchanged with the peptide of interest as analyzed. Only peptide candidates that can effectively bind and stabilize the peptide-receptive MHC molecules prevent dissociation of the MHC complexes. To determine the yield of the exchange reaction, an ELISA was performed based on the detection of the light chain (β2m) of stabilized MHC complexes. The assay was performed as generally described in Rodenko et al. (Rodenko et al., 2006).
96 well MAXISorp plates (NUNC) were coated over night with 2 ug/ml streptavidin in PBS at room temperature, washed 4× and blocked for 1 h at 37° C. in 2% BSA containing blocking buffer. Refolded HLA-A*02:01/MLA-001 monomers served as standards, covering the range of 15-500 ng/ml. Peptide-MHC monomers of the UV-exchange reaction were diluted 100 fold in blocking buffer. Samples were incubated for 1 h at 37° C., washed four times, incubated with 2 ug/ml HRP conjugated anti-β2m for 1 h at 37° C., washed again and detected with TMB solution that is stopped with […]. Absorption was measured at 450 nm. Candidate peptides that show a high exchange yield (preferably higher than 50%, most preferred higher than 75%) are generally preferred for a generation and production of antibodies or fragments thereof, and/or T cell receptors or fragments thereof, as they show sufficient avidity to the MHC molecules and prevent dissociation of the MHC complexes.
For “147 (SILETVATL; listed as Homo sapiens) [compound 147]”, the “Peptide Exchange (MHC class I binding score, peptide exchange yield)” value (“Peptide Exchange” for short) was ““+++” (≥50 = +++)”. “148 (SIVASLITV; listed as Homo sapiens) [compound 148]” was tested, and the “Peptide Exchange” value was ““+++” (≥50 = +++)”. “149 (SLDNGGYYI; listed as Homo sapiens) [compound 149]” was tested, and the “Peptide Exchange” value was ““+++” (≥50 = +++)”. “150 (SLFDQPLSII; listed as Homo sapiens) [compound 150]” was tested, and the “Peptide Exchange” value was ““+++” (≥50 = +++)”. For “151 (SLFDSAYGA; listed as Homo sapiens) [compound 151]”, the “Peptide Exchange” value was ““+++” (≥50 = +++)”. “152 (SLIRILQTI; listed as Homo sapiens) [compound 152]” was tested, and the “Peptide Exchange” value was ““+++” (≥50 = +++)”. “153 (SLLAELHVL; listed as Homo sapiens) [compound 153]” was tested, and the “Peptide Exchange” value was ““+++” (≥50 = +++)”. For “155 (SLMLEVPAL; listed as Homo sapiens) [compound 155]”, the “Peptide Exchange” value was ““+++” (≥50 = +++)”. With “156 (SLNIGDVQL; listed as Homo sapiens) [compound 156]” the “Peptide Exchange” value was ““+++” (≥50 = +++)”. For “157 (SLNIRDFTM; listed as Homo sapiens) [compound 157]”, the “Peptide Exchange” value was ““+++” (≥50 = +++)”. With “158 (SLPEAPLDV; listed as Homo sapiens) [compound 158]” the “Peptide Exchange” value was ““+++” (≥50 = +++)”. “159 (SLQEEKLIYV; listed as Homo sapiens) [compound 159]” was tested, and the “Peptide Exchange” value was ““+++” (≥50 = +++)”. In the case of “160 (SLSFLVPSL; listed as Homo sapiens) [compound 160]”, the “Peptide Exchange” value is reported as ““+++” (≥50 = +++)”. For “161 (SMDDGMINV; listed as Homo sapiens) [compound 161]”, the “Peptide Exchange” value was ““+++” (≥50 = +++)”. With “162 (SMKDDLENV; listed as Homo sapiens) [compound 162]” the “Peptide Exchange” value was ““++” (≥20% = ++)”. In the case of “163 (SQLDISEPYKV; listed as Homo sapiens) [compound 163]”, the “Peptide Exchange” value is reported as ““+++” (≥50 = +++)”. For “164 (SVHKGFAFV; listed as Homo sapiens) [compound 164]”, the “Peptide Exchange” value was ““+++” (≥50 = +++)”. “165 (TLDDDLDTV; listed as Homo sapiens) [compound 165]” was tested, and the “Peptide Exchange” value was ““++” (≥20% = ++)”. “166 (TLDPNQVSL; listed as Homo sapiens) [compound 166]” was tested, and the “Peptide Exchange” value was ““++” (≥20% = ++)”. “167 (TLDTSKLYV; listed as Homo sapiens) [compound 167]” was tested, and the “Peptide Exchange” value was ““+++” (≥50 = +++)”. With “168 (YLLDQSFVM; listed as Homo sapiens) [compound 168]” the “Peptide Exchange” value was ““++++” (≥75% = ++++)”. For “169 (TLLLGLTEV; listed as Homo sapiens) [compound 169]”, the “Peptide Exchange” value was ““+++” (≥50 = +++)”. In the case of “170 (TLTFRVETV; listed as Homo sapiens) [compound 170]”, the “Peptide Exchange” value is reported as ““+++” (≥50 = +++)”. With “171 (TLVPPAALISI; listed as Homo sapiens) [compound 171]” the “Peptide Exchange” value was ““+++” (≥50 = +++)”. With “172 (TLYDMLASI; listed as Homo sapiens) [compound 172]” the “Peptide Exchange” value was ““+++” (≥50 = +++)”. For “173 (TVIENIHTI; listed as Homo sapiens) [compound 173]”, the “Peptide Exchange” value was ““++” (≥20% = ++)”. In the case of “174 (VLAELPIIVV; listed as Homo sapiens) [compound 174]”, the “Peptide Exchange” value is reported as ““+++” (≥50 = +++)”. “175 (FTVPRVVAV; listed as Homo sapiens) [compound 175]” was tested, and the “Peptide Exchange” value was ““+++” (≥50 = +++)”.
